Values of other authors in paper PMC8541618.
Where two headings read alike, the source gives them in different places.

Legend:
[1] = target: VanRA (Enterococcus faecium) (UniProt Q06239)
[2] = target: VanRA (Enterococcus faecium) (UniProt Q06239); remark: listed apart in the source

Sequence of UniProt Q06239 (Q06239 whole entry): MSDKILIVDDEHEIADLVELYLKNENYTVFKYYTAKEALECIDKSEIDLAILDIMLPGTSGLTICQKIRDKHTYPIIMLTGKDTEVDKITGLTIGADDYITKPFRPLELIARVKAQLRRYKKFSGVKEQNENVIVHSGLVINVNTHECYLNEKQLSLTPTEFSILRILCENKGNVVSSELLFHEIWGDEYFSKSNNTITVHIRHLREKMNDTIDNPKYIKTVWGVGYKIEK

Substance: VanSA cytosolic portion (from UniProt Q06240)
- Kd [1]: 6.8 µM

Substance: VanSA (from UniProt Q06240)
- Kd [2]: 1.9 µM
